Experimental data: patent US20240254202A1 (CONSEJO NACIONAL DE INVESTIGACIONES CIENT FICAS Y T CNICAS …, published 2024)

B1: NbCoV_39 (VHH)
VHH: QVQLQESGGGLVQAGGSLRLSCAASGRTFSSTAMAWFRQAPGQEREFVATISWSGDNTKYADSVKGRFTISRDNAKNTVYLQMNSLKPEDTAVYYCAADPGNFGVPIEYFMFDYWGQGTQVTVSS
notes: also called Nb 39; 39A
B2: NbCoV_43 (VHH)
VHH: QVQLQESGGGLVQPGGSLRLSCVASGSIGSINHMAWFRKPPGKERELVASITLAPDEIAYYADSVKGRFAISKGNAQPTLYLQMNSLKPEDTAVYYCHFRQIRANAHDVYWGQGTQVTVSS
notes: also called Nb 43
B3: NbCoV_104 (VHH)
VHH: QVQLQESGGGLVQPGGSLRLSCAASGSIFRVMGWYRQAPGKEHDLVATITRSGDTNYADSVKGRFTISRDNTKNTVYLQMNNLKPEDTDVYYCYARNFVGHNPDVWGQGTQVTVSS
notes: also called Nb 104

Target: Spike protein of wild-type virus B. 1.499, hCoV-19/Argentina/PAIS-C0102/2020 (Andina Strain) (SARS-CoV-2)
Assay: cell-based or functional assay

Row | Binder | wildtype VN assay on Vero cells, neutralizing activity [µM]
1 | B1 | 0.4
2 | B2 | 0.1
3 | B3 | 0.3
